Patent US20200179510A1, “LOW DENSITY LIPOPROTEIN RECEPTOR RELATED PROTEIN 5 INHIBITION SUPPRESSES TUMOR FORMATION” (YALE UNIVERSITY, priority 2017, published 2020)

Experiments:
[1] = tested on: CD8+ intraepithelial cells from intestines; experiment: Mouse primary intraepithelial lymphocytes; format: cell-based; conditions: IL-15, 10 nM DKK2, 24 hour
Method: (§1) Mouse primary NK and CD8+ T cells were isolated from the spleens by using the NK cell and CD8+ T cell isolation kits according to the manufacturer's instructions (Miltenyi Biotec #130-090-864 and #130-104-075), respectively. Primary NK cells were cultured in RPMI-1640 (Gibco, 11875-093) supplemented with 10% FBS, penicillin (100 U/ml), streptomycin (100 μg/ml), 2-mercaptoethanol (500 μM) and HEPES (10 mM) at 37° C. supplemented with 5% CO2 in the presence of recombinant murine IL-15 (50 ng/ml) for 24 hours before treatment with DKK2, CHIR99021, or WNT3A. CD8+ T cells were cultured in the same culture medium and condition as NK cells, but supplemented with IL-15 (200 ng/ml) and IL-15 Rα (1 μg/ml recombinant Mouse IL-15 receptor alpha Fc chimera Protein from R&D) for 96 hours before DKK2 treatment. Mouse primary intraepithelial lymphocytes (IELs) were prepared as described in (Little et al., The Journal of Immunology 175, 6713-6722 (2005) and Li et al. Infect Immun 80, 565-574 (2012)). […]

human NK cells = experiment: Human NK cells cultured with IL-15; format: cell-based; conditions: human IL-15 50 ng/ml, 10 nM human DKK2, 24 hour
Method: Peripheral blood mononuclear cells from normal humans were purchased from ZenBio (SER-PBMC-200). Human NK cells were isolated from the PBMCs by using the human NK cell isolation kit according to the manufacturer's instruction (Miltenyi Biotec #130-092-657). Human NK cells were cultured in RPMI-1640 (Gibco, 11875-093) supplemented with 10% heat-inactivated FBS, penicillin (100 U/ml), streptomycin (100 μg/ml), 2-mercaptoethanol (500 μM) and HEPES (10 mM) at 37° C. supplemented with 5% CO2 in the presence of recombinant human IL-15 (50 ng/ml) before treatment with recombinant human DKK2 protein.

[2] = tested on: mouse primary CD8+ T cells; experiment: Mouse primary CD8+ T cells; format: cell-based
Method: as §1

LRP5 = biological target: T1, LRP5 (Homo sapiens, UniProt O75197); experiment: LRP internalization assay, LRP5; format: cell-based; conditions: HEK293 cells, DKK2 4 nM
T1 construct: endogenous in cells; host or cells: HEK293
Method: (§2) HEK293 cells were treated with mock or recombinant mouse DKK2 protein (4 nM) in culture medium for duration indicated. The cells were washed with pre-cold PBS and cell surface proteins were biotinylated with 0.5 mg/ml of EZ-Link Sulfo-NHS-SS-Biotin (Thermo Fisher, 21445) in a PBS buffer on ice for 30 min. The reaction was stopped by addition of PBS containing ice-cold 50 mM NH4Cl, followed by repeated washes with ice-cold PBS. The cells were then lysed with in a buffer containing 1.25% Triton X-100, 0.25% SDS, 50 mM Tris HCl PH8.0, 150 mM NaCl, 5 mM EDTA, 5 mg/ml iodoacetamide, 10 ug/ml PMSF, and the Roche proteinase inhibitor cocktail. After centrifugation, aliquots were taken as lysate controls, and the rest of supernatants were used in pull-down with NeutrAvidin beads (Thermo Fisher, 29200), followed by analysis by Western blotting.

[3] = tested on: phospho-STAT5 nuclear localization; experiment: Immunocytostaining of phospho-STAT5 localization in NK cells; format: cell-based, mouse
Method: They were then placed on poly-lysine coated coverslips and incubated for 30 min at room temperature. Cells were fixed with 4% PFA for 10 min at room temperature and permeabilized with ice-cold methanol for 10 min at −20° C. After rinsed with PBS for 3 times, cells were blocked with a blocking buffer (5% normal donkey serum and 0.5% triton in PBS) for 1 hr at room temperature. Primary antibodies were then diluted in PBS with 0.5% BSA and applied to cells with overnight incubation at 4° C. Cells were rinsed with PBS for 3 times and incubated with diluted fluorochrome-conjugated secondary antibodies (in PBS with 1% BSA) for 1 hr at room temperature. Finally, cells were rinsed with PBS for 3 times and mounted with Prolong Gold Antifade solution (Thermo Fisher) for confocal microscopy.

primary mouse NK cells = experiment: IL-15-cultured primary mouse NK cells (flow cytometry, Western); format: cell-based
Method: (§3) Cells in single cell suspension were fixed with 2% PFA (Santa-Cruz sc-281692). After washing with a Flow Cytometry Staining Buffer (eBioscience 00-4222-26), cells were stained with antibodies for cell surface markers for 1 hour on ice in the dark. For staining of intracellular proteins, the cells were washed and resuspended in the Permeabilization Buffer (BD 554723) and stained by antibodies in the Permeabilization Buffer for 1 hour on ice in the dark. The cells were then pelleted and resuspended in the Flow Cytometry Staining Buffer for flow cytometry analysis.
Mouse primary NK and CD8+ T cells were isolated from the spleens by using the NK cell and CD8+ T cell isolation kits according to the manufacturer's instructions (Miltenyi Biotec #130-090-864 and #130-104-075), respectively. Primary NK cells were cultured in RPMI-1640 (Gibco, 11875-093) supplemented with 10% FBS, penicillin (100 U/ml), streptomycin (100 μg/ml), 2-mercaptoethanol (500 μM) and HEPES (10 mM) at 37° C. supplemented with 5% CO2 in the presence of recombinant murine IL-15 (50 ng/ml) for 24 hours before treatment with DKK2, CHIR99021, or WNT3A. CD8+ T cells were cultured in the same culture medium and condition as NK cells, but supplemented with IL-15 (200 ng/ml) and IL-15 Rα (1 μg/ml recombinant Mouse IL-15 receptor alpha Fc chimera Protein from R&D) for 96 hours before DKK2 treatment. Mouse primary intraepithelial lymphocytes (IELs) were prepared as described in (Little et al., The Journal of Immunology 175, 6713-6722 (2005) and Li et al. Infect Immun 80, 565-574 (2012)). In brief, the small intestine was everted, divided into four pieces, and washed twice in phosphate-buffered saline (PBS) containing 100 U/ml penicillin/streptomycin The specimens were then incubated with stirring at 37° C. in prewarmed Ca2+ and Mg2+-free Hanks' solution containing 100 U/ml penicillin-streptomycin, 5% fetal calf serum (FCS), 2 mM dithiothreitol (DTT), and 5 mM EDTA for 30 min, followed by vigorous shaking for 30 s. The supernatants were passed over two nylon wool columns to remove undigested tissue debris. The lymphocytes obtained were pooled and enriched on a discontinuous (40% and 70%) Percoll density gradient. Cells at the interface between the 40% and […], fractions (IELs) were collected for treatment with IL-15 (200 ng/ml) and DKK2 (200 ng/ml), followed by flow analysis.

[4] = tested on: primary mouse NK cells with MC38 or YUMM1.7 cells; experiment: NK and tumor cell co-culture; format: cell-based; conditions: NK cells pre-treated with DKK2 8 nM 24 hrs, MC38 7:1
Method: Primary NK cells were isolated from the spleens as described above and cultured in the presence of 50 ng/ml recombinant murine IL-15 for 24 hours. Meanwhile, tumor cells were plated in the 96 well plate for overnight. NK cells were added into the tumor cells at 7:1 radio in the presence of the IgG3 antibody or anti-DKK2 5F8 for 9 hours at 37° C. For testing the effect of DKK2 in co-culture, isolated NK cells were cultured in the presence of 50 ng/ml recombinant murine IL-15 for 24 hours and then cultured in the presence or absence of DKK2 for another 24 hours before the NK cells were added to pre-seeded MC38 cells at 7:1 (NK:MC38) radio. The numbers of live tumor cells were determined by a Guava flow cytometer (EMDmillipore), whereas the cell apoptosis was assessed by flow cytometry using an Annexin V apoptosis detection kit (eBioscience, 88-8007).

LRP6 = biological target: T2, LRP6 (Homo sapiens, UniProt O75581); experiment: LRP internalization assay, LRP6; format: cell-based; conditions: HEK293 cells, DKK2 4 nM
T2 construct: endogenous in cells; host or cells: HEK293
Method: as §2

[5] = tested on: Wnt reporter gene TOPFlash; experiment: Wnt reporter gene (TOPFlash) assay in HEK293 cells; format: cell-based
Method: The Stat5 reporter assays were done in HEK293T cells for activated JAK1-induced activity or in those stably expressing JAK3, IL2/15Rβ and the common receptor γ subunit for IL15 induced activity. Cells were seeded at 8×10^4 cells per well in 48 well plate. The next day, cells were transfected by Lipofectamine 2000 (Invitrogen) with the pGL4.52-STAT5-Luciferase (Promega) and tagRFP (internal control) plasmids together with other plasmids expressing genes of interest. The total amount of plasmid was kept at 125 ng per well. The cells were added 24 hours after transfection with IL15/IL15Rα-Fc complex or mock. Six hours later, the cells were lysed and subjected to RFP fluorescence and luciferase luminescence measurement using an Envision Multilabel plate reader. The reporter gene activity is shown after being normalized against RFP readings. The LEF reporter assay was carried out in HEK293 cells that were transfected with the TOPFlash and GFP plasmids. The rest is the same as above. The reporter gene activity is shown after being normalized against GFP readings.
A functional mouse monoclonal anti-DKK2 antibody (5F8) was developed to specifically target and neutralize DKK2, but to not cross react with DKK-1. […]

[6] = tested on: tumor infiltrated leukocytes (CD8+ and NK1.1+ cells); experiment: Flow cytometry of tumor infiltrated leukocytes, MC38 tumors; format: in vivo, mouse; conditions: MC38, intratumoral DKK2 protein 600 ng/25 μl/tumor, three times every 8 hours
Method: Tumors were minced using scissors and scalpel blades and incubated with a digestion buffer [RPMI1640, 5% FBS, 1% PS, 25 mM HEPES and 300 U collagenase (Sigma C0130)] in a shaker for 2 h at 37° C. Disperse cells were filtered through a 70 μm cell strainer to eliminate clumps and debris. After centrifugation for 5 minutes (500×g) at 4° C., cell pellets were resuspended in the Red Blood Cell Lysis Buffer (Sigma R7757) and incubated at RT for 5 min to remove erythrocytes. Cells were pelleted again, resuspended and incubated in 0.05% Trypsin/EDTA at 37° C. for 5 min, followed by DNA digestion with the addition of Type I DNase (1 μg/ml final, Sigma D4263) for 5 min. Trypsin digestion was stopped by the addition of FBS to 5%, and cells were filtered again by a 40 μm cell strainer. Finally, the cells were pelleted again and resuspended in PBS at a concentration of […].
as §3, with “The cells were then pelleted and resuspended in the Flow Cytometry Staining Buffer for flow cytometry analysis.” left out

T1 sequence (O75197 32-1615): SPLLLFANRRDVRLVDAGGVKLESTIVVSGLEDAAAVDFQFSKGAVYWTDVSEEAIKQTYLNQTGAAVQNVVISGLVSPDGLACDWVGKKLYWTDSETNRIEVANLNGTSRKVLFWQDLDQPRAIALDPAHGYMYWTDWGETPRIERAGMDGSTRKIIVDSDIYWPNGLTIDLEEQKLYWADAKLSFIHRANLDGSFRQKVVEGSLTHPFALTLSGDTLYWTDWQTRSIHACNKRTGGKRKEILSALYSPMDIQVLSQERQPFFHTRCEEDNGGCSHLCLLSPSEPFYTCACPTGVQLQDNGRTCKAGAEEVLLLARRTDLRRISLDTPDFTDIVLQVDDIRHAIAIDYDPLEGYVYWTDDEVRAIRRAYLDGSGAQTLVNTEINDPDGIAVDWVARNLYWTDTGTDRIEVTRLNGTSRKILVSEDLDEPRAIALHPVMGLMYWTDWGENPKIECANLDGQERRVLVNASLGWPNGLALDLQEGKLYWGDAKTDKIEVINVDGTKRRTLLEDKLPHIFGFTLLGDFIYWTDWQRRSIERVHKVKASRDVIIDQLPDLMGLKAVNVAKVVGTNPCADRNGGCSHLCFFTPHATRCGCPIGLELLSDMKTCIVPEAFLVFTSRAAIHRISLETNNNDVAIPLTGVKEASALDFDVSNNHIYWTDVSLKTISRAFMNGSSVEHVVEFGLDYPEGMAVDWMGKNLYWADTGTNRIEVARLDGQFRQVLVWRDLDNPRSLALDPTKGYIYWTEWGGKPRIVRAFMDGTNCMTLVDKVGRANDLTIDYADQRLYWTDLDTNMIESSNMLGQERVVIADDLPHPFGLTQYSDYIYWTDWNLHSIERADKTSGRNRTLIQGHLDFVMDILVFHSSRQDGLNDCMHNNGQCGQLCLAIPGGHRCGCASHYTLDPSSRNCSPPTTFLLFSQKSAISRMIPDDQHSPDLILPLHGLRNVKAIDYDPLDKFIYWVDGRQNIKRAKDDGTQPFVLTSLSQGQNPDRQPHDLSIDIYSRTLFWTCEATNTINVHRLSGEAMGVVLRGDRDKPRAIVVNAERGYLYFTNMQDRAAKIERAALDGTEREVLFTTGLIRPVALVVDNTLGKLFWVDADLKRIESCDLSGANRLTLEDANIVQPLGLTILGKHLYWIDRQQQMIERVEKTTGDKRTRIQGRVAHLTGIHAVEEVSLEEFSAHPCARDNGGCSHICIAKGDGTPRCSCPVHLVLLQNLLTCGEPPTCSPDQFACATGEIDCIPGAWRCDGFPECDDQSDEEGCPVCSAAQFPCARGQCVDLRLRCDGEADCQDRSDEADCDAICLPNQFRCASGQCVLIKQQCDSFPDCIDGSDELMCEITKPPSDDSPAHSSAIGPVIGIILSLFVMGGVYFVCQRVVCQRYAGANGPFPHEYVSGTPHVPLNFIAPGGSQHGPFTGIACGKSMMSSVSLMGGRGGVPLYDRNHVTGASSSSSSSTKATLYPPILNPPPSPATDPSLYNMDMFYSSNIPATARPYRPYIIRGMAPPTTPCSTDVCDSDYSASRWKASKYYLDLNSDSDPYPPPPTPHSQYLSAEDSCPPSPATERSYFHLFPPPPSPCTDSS
T2 sequence (O75581 20-1613): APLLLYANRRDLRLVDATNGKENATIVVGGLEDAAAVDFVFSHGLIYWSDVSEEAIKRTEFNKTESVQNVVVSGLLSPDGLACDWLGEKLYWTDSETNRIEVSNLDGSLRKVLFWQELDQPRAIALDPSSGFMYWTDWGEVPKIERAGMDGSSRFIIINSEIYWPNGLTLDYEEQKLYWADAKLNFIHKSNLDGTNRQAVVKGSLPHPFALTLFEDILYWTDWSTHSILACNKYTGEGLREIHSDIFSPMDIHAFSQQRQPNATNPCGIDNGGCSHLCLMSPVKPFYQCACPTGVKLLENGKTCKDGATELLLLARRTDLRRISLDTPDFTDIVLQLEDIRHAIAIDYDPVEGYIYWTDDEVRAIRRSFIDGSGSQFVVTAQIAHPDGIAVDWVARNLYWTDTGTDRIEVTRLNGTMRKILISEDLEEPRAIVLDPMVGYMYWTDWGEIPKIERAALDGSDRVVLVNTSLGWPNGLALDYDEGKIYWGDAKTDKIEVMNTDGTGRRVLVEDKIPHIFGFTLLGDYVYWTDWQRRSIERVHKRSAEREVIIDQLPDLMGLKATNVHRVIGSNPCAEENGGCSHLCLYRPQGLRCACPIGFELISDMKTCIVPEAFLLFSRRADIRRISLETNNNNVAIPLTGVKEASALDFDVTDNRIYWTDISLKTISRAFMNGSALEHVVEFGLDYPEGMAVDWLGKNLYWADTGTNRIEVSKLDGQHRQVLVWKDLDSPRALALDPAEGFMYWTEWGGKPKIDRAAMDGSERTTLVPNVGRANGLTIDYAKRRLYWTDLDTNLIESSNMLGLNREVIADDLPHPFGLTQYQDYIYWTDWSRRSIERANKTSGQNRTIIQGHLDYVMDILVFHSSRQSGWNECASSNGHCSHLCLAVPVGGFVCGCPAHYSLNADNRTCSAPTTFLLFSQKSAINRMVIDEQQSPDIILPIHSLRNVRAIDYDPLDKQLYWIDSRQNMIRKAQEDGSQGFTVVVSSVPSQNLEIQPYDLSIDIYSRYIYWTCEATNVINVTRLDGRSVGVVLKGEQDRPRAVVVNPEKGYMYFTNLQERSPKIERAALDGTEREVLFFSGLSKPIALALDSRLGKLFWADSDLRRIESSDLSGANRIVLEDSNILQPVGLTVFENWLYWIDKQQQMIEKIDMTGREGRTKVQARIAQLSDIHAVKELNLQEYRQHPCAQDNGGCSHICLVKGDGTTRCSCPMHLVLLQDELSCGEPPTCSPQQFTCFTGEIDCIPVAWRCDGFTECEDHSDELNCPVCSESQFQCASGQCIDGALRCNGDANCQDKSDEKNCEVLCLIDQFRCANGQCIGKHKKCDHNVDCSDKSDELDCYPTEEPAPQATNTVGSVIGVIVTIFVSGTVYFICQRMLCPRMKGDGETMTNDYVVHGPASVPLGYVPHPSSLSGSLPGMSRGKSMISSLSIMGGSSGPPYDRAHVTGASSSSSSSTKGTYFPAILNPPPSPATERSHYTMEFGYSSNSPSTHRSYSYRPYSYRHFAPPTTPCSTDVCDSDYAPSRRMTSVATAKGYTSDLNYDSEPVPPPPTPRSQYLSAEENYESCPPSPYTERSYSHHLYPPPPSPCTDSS

B1: DKK2: Recombinant Dickkopf 2 protein (mouse; human for human NK cells), also used as conditioned medium (protein)
chain: KLNSIKSSLGGETPAQSANRSAGMNQGLAFGGSKKGKSLGQAYPCSSDKECEVGRYCHSPHQGSSACMLCRRKKKRCHRDGMCCPGTRCNNGICIPVTESILTPHIPALDGTRHRDRNHGHYSNHDLGWQNLGRPHSKMPHIKGHEGDPCLRSSDCIDGFCCARHFWTKICKPVLHQGEVCTKQRKKGSHGLEIFQRCDCAKGLSCKVWKDATYSSKARLHVCQKI
activation of CD8+ intraepithelial cells [1]: directly suppresses
granzyme B expression in human NK cells (human NK cells): inhibit granzyme B expression in human NK cells
T cell receptor-mediated activation of primary T cells [2]: does not inhibit T cell receptor-mediated activation
IL-15-mediated activation of mouse primary CD8+ T cells ([2]; IL-15+IL15Rα-Fc 4 days, DKK2 10 nM 24 hours): directly suppresses mouse primary CD8+
internalization of LRP5 (LRP5): induces internalization of LRP5
co-localization of phospho-STAT5 with EEA1 ([3]; DKK2-treated NK cells): partially co-localized with early endosome marker
localization of phospho-STAT5 in NK cells ([3]; IL-15, DKK2-treated primary NK cells): cytosolic localization of phospho-STAT5 was readily detected
phospho-STAT5 nuclear localization in NK cells lacking LRP5 ([3]; LRP5-/- NK cells): failed to cause impairment of phospho-STAT5 nuclear localization
granzyme B (Western) (primary mouse NK cells; DKK2-treated samples): reduced granzyme B
perforin (Western) (primary mouse NK cells; DKK2-treated samples): reduced perforin
phosphorylated STAT5, ERK and AKT stimulated by IL-15 (primary mouse NK cells; DKK2 treatment, Western): No notable changes in phosphorylated STAT5, ERK, and AKT
dose dependence of inhibition of NK cell activation (primary mouse NK cells; FIG. 4F): dose-dependent
granzyme B and NK activation markers (primary mouse NK cells; IL-15 50 ng/ml 24 hrs, then DKK2 8 nM 24 hours): significant reductions in granzyme B as well as a number of other NK activation markers, including CD69, IFNY, CD107a, and CD314
activation of LRP5-deficient NK cells (primary mouse NK cells; LRP5-/- NK cells): failed to inhibit
activation of primary NK cells lacking LRP6 (primary mouse NK cells; Lrp6-/- NK cells): could still inhibit the activation
ability of pre-treated NK cells to cause tumor cell apoptosis and death [4]: reduced ability to cause tumor cell apoptosis and death
internalization of LRP6 (LRP6): not LRP6
Wnt reporter gene activity ([5]; DKK2 5 nM, Wnt3a 2 nM, CHIR 1 μM, 6 hrs (FIG. 10D)): inhibited
Wnt reporter activity ([5]; HEK293, TOPFlash, conditioned medium (FIG. 1E)): inhibited Wnt signaling
tumor immune responses elicited by PD-1 blockade [6]: inhibited PD-1 blockade-induced increases in the numbers of tumor-infiltrated CD45+ and CD8+ cells and activation of CD8+ and NK cells
